Assay results from patent publication US20240083959A1.

Biological target: T1, recombinant human LPHN2 lectin-olfactomedin-like-GAIN/GPS domain, residues F26-R796 (human), O95490
T1 chain: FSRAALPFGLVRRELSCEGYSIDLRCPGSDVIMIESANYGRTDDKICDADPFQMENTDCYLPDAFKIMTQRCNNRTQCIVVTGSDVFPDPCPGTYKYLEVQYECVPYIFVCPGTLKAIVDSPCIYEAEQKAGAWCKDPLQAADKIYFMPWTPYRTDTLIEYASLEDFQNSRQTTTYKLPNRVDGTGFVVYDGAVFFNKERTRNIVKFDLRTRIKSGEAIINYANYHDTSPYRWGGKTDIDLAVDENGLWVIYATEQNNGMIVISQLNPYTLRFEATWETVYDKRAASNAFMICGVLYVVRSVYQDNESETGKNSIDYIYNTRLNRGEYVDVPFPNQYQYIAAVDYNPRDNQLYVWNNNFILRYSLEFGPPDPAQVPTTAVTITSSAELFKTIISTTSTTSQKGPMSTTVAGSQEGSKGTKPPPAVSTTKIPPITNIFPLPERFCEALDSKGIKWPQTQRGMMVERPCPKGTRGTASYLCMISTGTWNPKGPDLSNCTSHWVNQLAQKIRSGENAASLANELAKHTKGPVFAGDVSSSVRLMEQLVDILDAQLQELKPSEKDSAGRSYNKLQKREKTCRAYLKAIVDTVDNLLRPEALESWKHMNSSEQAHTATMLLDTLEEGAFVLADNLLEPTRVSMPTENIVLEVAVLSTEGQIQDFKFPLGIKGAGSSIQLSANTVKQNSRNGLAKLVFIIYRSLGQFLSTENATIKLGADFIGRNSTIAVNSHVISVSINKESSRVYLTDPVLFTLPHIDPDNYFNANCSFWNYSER
Assay: solid-phase binding (ELISA)
Conditions: ligand; chains chain; N-linked glycans removed with PNGase F (sites N79, N186, N269, N325 on SEQ ID NO: 1); remark: other sources report otherwise

Kd: 840 nM
B1: deglycosylated LRG1 (LRG1 treated with PNGase F), P02750 36-347 (protein)
chain: VTLSPKDCQVFRSDHGSSISCQPPAEIPGYLPADTVHLAVEFFNLTHLPANLLQGASKLQELHLSSNGLESLSPEFLRPVPQLRVLDLTRNALTGLPPGLFQASATLDTLVLKENQLEVLEVSWLHGLKALGHLDLSGNRLRKLPPGLLANFTLLRTLDLGENQLETLPPDLLRGPLQLERLHLEGNKLQVLGKDLLLPQPDLRYLFLNGNKLARVAAGAFQGLRQLDMLDLSNNSLASVPEGLWASLGQPNWDMRDGFDISGNPWICDQNLSDLYRWLQAQKDKMFSQNDTRCAGPEAVKGQTLLAVAKSQ
